A short description of the data set: label from the status in PepcDB records.
For “MPSLPASAESLLPPTLDESTRLEVLRGLCLLDSPPDPVFDTVAAMAARSLDAEIAVVSLVDEHRQWFKARIGLEARETPRSQAFCAHAIRSDEVMVVPDAQLDPRFCDNPLVLGPPFIRFYAGAPLKLRDGHRIGTLCVIGTSPRPGLDQAAITQLEGLRDLAVLRVENLRSTTYRDGPTGLPNRSRFSEDLDTWLSQRDTAPATTAVAIDVCGSDYFRDMVKALGWEYADGYIALAQRRLAAYLPGGTLLYRLDPTTFGFLAQAEGQRLATLCTKVSKAFTEPLEHQGIPHTAVASIGAVSLQSSYGAADTIRSLTTAVDIARERCLPWSMYERKHDVAQRNTFRLLAALPAALDSSSQLRLHFQPRVDLHDHRCVGVEALLRWQHPMIGPVMPSDFIPMAEKTALINRITAWVIDNGIAQAARWQQQGLDFNLALNVSAADLDRPGFAGLLRRGLDRHKLDPRRLEIEFTESAMIRHPDHLAEQLAAIAALGVHIAIDDFGTGYSNFSYLKQLPASSLKIDQSFIRSLPDSRTDRTLVPAMIQLGHSLGQRVVAEGIESAEAYAQLRAWGCDEGQGYWIAKPMPAAALETWLETPWHEQHAAPVNLLAASLAAARV”, the protein production result was “failed”.

“MGHHHHHHSHDDLEVGSIYRGKITRVEKYGVFVSLNSHVWGLMRGLFPDYKVGDELFVRVSQVKPYKGEVDMIPASIKGP”: the protein production entry is “not failed”.

On to “MAFWAGGSPSVVDYFPSEDFYRCGYCKNESGSRSNGMWAHSMTVQDYQDLIDRGWRRSGKYVYKPVMNQTCCPQYTIRCRPLQFQPSKSHKKVLKKMLKFLAKGEVPKGSCEDEPMDSTMDDAVAGDFALINKLDIQCDLKTLSDDIKESLESEGKNSKKEEPQELLQSQDFVGEKLGSGEPSHSVKVHTVPKPGKGADLSKPPCRKAKEIRKERKRLKLMQQNPAGELEGFQAQGHPPSLFPPKAKSNQPKSLEDLIFESLPENASHKLEVRLVPVSFEDPEFKSSFSQSFSLYVKYQVAIHQDPPDECGKTEFTRFLCSSPLEAETPPNGPDCGYGSFHQQYWLDGKIIAVGVIDILPNCVSSVYLYYDPDYSFLSLGVYSALREIAFTRQLHEKTSQLSYYYMGFYIHSCPKMKYKGQYRPSDLLCPETYVWVPIEQCLPSLENSKYCRFNQDPEAVDEDRSTEPDRLQVFHKRAIMPYGVYKKQQKDPSEEAAVLQYASLVGQKCSERMLLFRN”, for which the protein production result is “failed”.

Take “MDSLRFNLQQSPFQLKPRILRPRITNISNRIDETDPRPSSSAGRIQRLVLNNEGRTKLNADPDREFYSYPRFVNHVDDSFISSLTELYRNRLRPGSTVLDLMSSWVSHLPEEVKYEKVVGHGLNAQELARNPRLDYFFVKDLNEDQKFEFEDKYFDAVLCSVGVQYLQQPEKVFAEVYRVLKPGGVLIVSFSNRMFYEKAIRVWRDGTEYSRIQLVVQYFQSIEGFTQPEIIRQQPGAQISVLTRLMGFIGLASTPDPFNAVIAYKNFKPIYE”: the protein production result is “failed”.

“MRGLKTFSILGLIVALLLVAACGNTDNSSKKESSTKDTISVKDENGTVKVPKDAKRIVVLEYSFADALAALDVKPVGIADDGKKKRIIKPVREKIGDYTSVGTRKQPNLEEISKLKPDLIIADSSRHKGINKELNKIAPTLSLKSFDGDYKQNINSFKTIAKALNKEKEGEKRLAEHDKLINKYKDEIKFDRNQKVLPAVVAKAGLLAHPNYSYVGQFLNELGFKNALSDDVTKGLSKYLKGPYLQLDTEHLADLNPERMIIMTDHAKKDSAEFKKLQEDATWKKLNAVKNNRVDIVDRDVWARSRGLISSEEMAKELVELSKKEQK”: the protein production result is on record as “failed”.

Take “MSTPLQGIKVLDFTGVQSGPSCTQMLAWFGADVIKIERPGVGDVTRHQLRDIPDIDALYFTMLNSNKRSIELNTKTAEGKEVMEKLIREADILVENFHPGAIDHMGFTWEHIQEINPRLIFGSIKGFDECSPYVNVKAYENVAQAAGGAASTTGFWDGPPLVSAAALGDSNTGMHLLIGLLAALLHREKTGRGQRVTMSMQDAVLNLCRVKLRDQQRLDKLGYLEEYPQYPNGTFGDAVPRGGNAGGGGQPGWILKCKGWETDPNAYIYFTIQEQNWENTCKAIGKPDWITDPAYSTAHARQPHIFDIFAEIEKYTVTIDKHEAVAYLTQFDIPCAPVLSMKEISLDPSLRQSGSVVEVEQPLRGKYLTVGCPMKFSAFTPDIKAAPLLGEHTAAVLQELGYSDDEIAAMKQNHAI”: the protein production result was “failed”.

Turning to “MELLFIIAAFVMGFIALKINLPPLVGFLLAGFGLHALGFQSNDALETFADLGVTLLLFSIGLKLDIKTLLAKEIWLGATLHNVFSTLFFTFALLGLKLLGINMLANIETAQLVLFGFALSFSSTVFAVKALQEKGEMNATYGTLAIGILVMQDIFAVVFLTASTGKIPEITALALFALPLFRPLFFKLLDWAGHGEMLVLYGIFLALVAGAGTFELVGMKPDLGALILGMLLAGHAKASELSKSLFNLKEVLLICFFLNIGLSAAPTISGLGLALILILLLPVKGFLYFIIINKFKFRVRTSLLASLTLFNYSEFGLIVGGLAFKMGWLPADTLVAIAIAVSISFIISAPLNNFGHTIYQRSRHWLKEHTAERLNPMDKLINPGRAQILILGMGRIGSGAYDELKEKYGDIILGIELREESAKQHQELGRNVISGDATDPDFWERILSTSHVKLVLLAMPNHQGNQFALEQLQTRNYQGQTAAIAAYNDQIDGLIEQGVDAAFNIYHEAGSGFARHVSEQLDPQFNHHKDYITH”, the protein production result is “failed”.

For “MRMSRIQARLLQAIVRPALKTNLLKHAAWRVVLKLRNEFAHAVPPVELETTFDENIRILTSLSDHIESQVFWQGFQEADEGVILLLKRFLPSDGSFIDVGANIGTFTLVAAHRAVRGQVHAFEPSAHHFARLAHNVELNDFKNVALNRKGLYDQPGEAVLFLPSQTGEMNNSGAASLYTSALEETRQVSEAVSLIRLDDYVREKSIGRVDIIKIDIEGAELKALEGARETIARFRPLVFMELDLDNLERAERSPEEVLQYWKSLNYEVSIILLTGETVPVTSPKEFGLHQNLQCRPF”, the protein production entry is “failed”.

Consider “MTEYNIALVGFGGVNRALAQLIAERNQAWKKQLGFSLKIVGISDLFLGSIVASQGLDAGLLSKLPATKGALAQLPGGQVEALNEQVIKDSGADIIAEATFTNPVDGEPASTFCRWALEQGKHVVTTNKGPIALHSAELKALAQRNLAAFEYEGAVMSGTPVIRMAKQSLAGSGLLGFEGILNGTSNFVLTRMEAGLGFAEAVAEAQALGYAEADPSADVEGFDVRLKVVILANELLDAQLTVSDVSCRGISGLTVKDLEQARAEGARWKLIGSAQRLADGSLQASVEPRLLPLAHPLAGIGGAINAVSFNTELLGAVTVSGPGAGRIETAFALLSDIIHIHQSRLAR”, for which the protein production result is given as “failed”.

Turning to “GDLAGSLDLGTGRIALYSIDVSGHGVASALMTARLAGLLSGLSTDGGVARSDGACRQCAGHDSWPPEILAARLNRMMIADLGVEQYFTMAYAEIDLRSGALALVQAGHPHPVVLRAGGRVELLGQGGLPVGLLPDATFERSETRLLPGDRLFLLSDGVTECPDLSGHELGEAGLVRLLAEHAGLGSEELMEALVWALHERMGGGDFRDDVSGVLFDY”, the protein production result is reported as “failed”.

With “MTLNIYTEEWAPISFSVDGKPDGLAVQVVQEIQKRIDNQDPIKVVPWARGWKIITEQPNTVLFTMTRTAERERMFSLIGPVAVGTTNFYALKNSNLEHHHHHH”, the protein production entry was “failed”.

Consider “VTEEEIHAMLEEGSVAGIIEQQEHEMVRNVFRLDDRQLGSLMVPRADIIYLDTALPLEENMKRVVESEHSRFPVCHNGLQSLLGVVNAKQLLAQTIKGGVTNLAEHLQPCVYVPETLTGMELLDHFRTSGTQMVFVVDEYGEIQGLVTLQDMLEAVTGEFA”, for which the protein production result is on record as “not failed”.

Consider “MPDNEVDLLFAQLSPEDLIEWSDYLPESFTDRALAQMGERQRQRFELYDQYSENEIGRYTDHQMLVLSDKATVAQAQRFFRRIELDCNDNLFIVDEADKYLGTVRRYDIFKHEPHEPLISLLSEDSRALTANTTLLDAAEAIEHSREIELPVIDDAGELIGRVTLRAATALVREHYEAQLMATAGMDESDDLFAPILKGAQRRAV”, for which the protein production result is “not failed”.

For the sequence “MLHIDDAMIEDAVTPQAAQEVLHAAFLDFGRGSAAMQRRVRTEAGGVKLSTLGAVIPGQGVAGAKVYTTIKGQFQFVILLFSAADGRPLATCDAGTLTRKRTAACTVLAAGALARLRSSVLGLFGAGTQGVEHAAQLSARFALEAILVHDPHASPEVVERIGRRCGVPARMAAPADIAAQADIVVTATRSATPLFAGQALRAGAFVGAIGSSLPHTRELDDEVLRRARAVVVEWREQTLSEAGDLVLAAPDTGLDAKVVELADVLAGRATARQADEDIVIYKSVGVGLEDVALAGYAYRRLAAQRGWPAP”, the protein production entry was “failed”.

Regarding “MTFRKPPPTMKPTRSLSASLFSDPHPAAYLAAFAAVMATAVARLYLPEAFTAPSSFLLFVPAVLISAALGGVGPGVFGTTFAWAAVWWVTRDIPFDLVSGLSAAIFLSVGFGMAVGGGWFHAARRRAAAVNDHLRSILDTVPDAVVVIDRAGIMTSFSPAAQRMFGWSEAEAIGKNVSLLMPEPYQSAHDGYLDRYARTGEKRIIGAGRVVVGRRKDGSTFPMELAVGETRGPTPSFTGFIRDLTERQETETRLQELQNELVHVSRLTAMGEMASTLAHELNQPLSAIANLLTGSRRLMDRGREADQAKVRDAIDRAAAQALRAGEVIHRMRDFARRGASEREVESLSKLIEEASALALIGEKERQVDVRLKLDPKADDVFADRVQIQQVLLNLIRNGIDAMQAQEPRKRALLIRTGLTEEGWSEVSVADTGPGIAPEVLERLFQPFMTTKPQGMGVGLSISRSIIEAHGGRIWAEANPGGGALFRFTLPPAESLAGEKETIDD”, the protein production entry is “failed”.

Regarding “MSSARLVIAGLNGGTGKTILSLGTVRALTNAGHSVKPFKKGPDYIDAEWLGLAAGRAATNLDPFFLDAARLQSLFLHASAGASISIIEGNRGLYDGRDVTGSCSTAELARILDSPVVLAMDCTKMTRTAAAILSGVAAFEPGVKLAGVVLNRTANERHRSMLRQCIEHYTDIPVLGALPRLRDNPIPERHMGLVSDREFAQCAGELDRVAQFVAQHVDVERMAEIARSAQPLASNEPFWPVVAEGDGVRPRIGYVRDAALWFYYEENLEALRQAGADLVELRIIDGDPWPTLDGLYLGGGFPETLASELSACRERLAGIREAALAGLPVYAECGGFMVLGESIVMDGVEYPMSGVFPVQTVFHPKPQGLGYVEAEVVAENPFFPQGMVFRGHEFHYSACRPRDGGAVTHALRLNPGTGMGGGADGLVQANTFAAYTHIFGPAVQGWAERFVRAARGHRDQLNKGTDLSLEHHHHHH”, the protein production entry is reported as “failed”.

Regarding “MAVESAAVGVFDSGVGGLSVLREIRARLPSESLLYVADNAHVPYGEKSAEYIRERCERIGDFLLEQGAKALVLACNTATAAAAAELRERYPQVPLVAMEPAVKPAAAATRNGRVGVLATTGTLKSARFAALLDRFASDVQVFTQPCPGLVERIEAGDLYGPQTRALLERLLAPILEQGCDTLILGCTHYPFVKPLLAELIPAEMAVIDTGAAVARQLERVLSARALLASGQAATPRFWTSALPEEMERILPILWGSPESVGKLVV”, the protein production result was “failed”.

Consider “MRQIPQNHIHTRSTPFWNKETAPAGIFERHLDKGTRPDVYPRLSVMQGAVKYLGYADEHCSEPEEIMVINAGEFGVFPPEKWHNIEVMTDDTYFNIDFFVAPEVLMEGATSRKVIHAGRELEHHHHHH”, for which the protein production result is reported as “not failed”.

As to “MPDSPFVSVVVPVYNDPEGVKDTLHALVDQRDAPAFEVRVVDNDSTDETMQVIEAFAADHPEIYCHTETEIQSSYAARNTGIEHAGGDVIVFLDADVVVERTCLRDISRTFEGSDVDYVGCNVQMYNPGETDTFWTKYDLAMGLPVEHYLRRKRFAPTCALAVRREVIEAVGTFDDELVSGGDKEFGNRVSEAGFRMGFAEGIVAKHPARTSLKRNIQKSTRIGKGQVQLWAGYGLAAHPVSYTRYLPPDPQRVRNRRDAQFDLVSIYLAEILLKYVQSATVLYLYLKRLLKRVSGDTT”, the protein production result is given as “failed”.

In the case of “MLLTLALVILFATIMVFFSQEFIRTFKKILAIRGAKLLIPLGIASWLIYNFDYLFIWVIYYIREVLQAVLAFLTRIMPFKPYSTSIALIILLTTVSVGPVLLLDLIYRKRTYKGYAYPYLTSTLILIFCTLILLVVS”, the protein production entry is “failed”.

Source of the values: a protein production outcome set (Wang et al. 2014).
